{
  "source": "IntAct's records for PubMed 23328395",
  "parents": {"B1": {"name": "Interferon-induced helicase C domain-containing protein 1 (Mus musculus), Q8R5F7-1 (parent)", "chain": "MSIVCSAEDSFRNLILFFRPRLKMYIQVEPVLDHLIFLSAETKEQILKKINTCGNTSAAELLLSTLEQGQWPLGWTQMFVEALEHSGNPLAARYVKPTLTDLPSPSSETAHDECLHLLTLLQPTLVDKLLINDVLDTCFEKGLLTVEDRNRISAAGNSGNESGVRELLRRIVQKENWFSTFLDVLRQTGNDALFQELTGGGCPEDNTDLANSSHRDGPAANECLLPAVDESSLETEAWNVDDILPEASCTDSSVTTESDTSLAEGSVSCFDESLGHNSNMGRDSGTMGSDSDESVIQTKRVSPEPELQLRPYQMEVAQPALDGKNIIICLPTGSGKTRVAVYITKDHLDKKKQASESGKVIVLVNKVMLAEQLFRKEFNPYLKKWYRIIGLSGDTQLKISFPEVVKSYDVIISTAQILENSLLNLESGDDDGVQLSDFSLIIIDECHHTNKEAVYNNIMRRYLKQKLRNNDLKKQNKPAIPLPQILGLTASPGVGAAKKQSEAEKHILNICANLDAFTIKTVKENLGQLKHQIKEPCKKFVIADDTRENPFKEKLLEIMASIQTYCQKSPMSDFGTQHYEQWAIQMEKKAAKDGNRKDRVCAEHLRKYNEALQINDTIRMIDAYSHLETFYTDEKEKKFAVLNDSDKSDDEASSCNDQLKGDVKKSLKLDETDEFLMNLFFDNKKMLKKLAENPKYENEKLIKLRNTILEQFTRSEESSRGIIFTKTRQSTYALSQWIMENAKFAEVGVKAHHLIGAGHSSEVKPMTQTEQKEVISKFRTGEINLLIATTVAEEGLDIKECNIVIRYGLVTNEIAMVQARGRARADESTYVLVTSSGSGVTEREIVNDFREKMMYKAINRVQNMKPEEYAHKILELQVQSILEKKMKVKRSIAKQYNDNPSLITLLCKNCSMLVCSGENIHVIEKMHHVNMTPEFKGLYIVRENKALQKKFADYQTNGEIICKCGQAWGTMMVHKGLDLPCLKIRNFVVNFKNNSPKKQYKKWVELPIRFPDLDYSEYCLYSDED"}, "B2": {"name": "Antiviral innate immune response receptor RIG-I (Mus musculus), Q6Q899-1 (parent)", "chain": "MTAEQRQNLQAFRDYIKKILDPTYILSYMSSWLEDEEVQYIQAEKNNKGPMEAASLFLQYLLKLQSEGWFQAFLDALYHAGYCGLCEAIESWDFQKIEKLEEHRLLLRRLEPEFKATVDPNDILSELSECLINQECEEIRQIRDTKGRMAGAEKMAECLIRSDKENWPKVLQLALEKDNSKFSELWIVDKGFKRAESKADEDDGAEASSIQIFIQEEPECQNLSQNPGPPSEASSNNLHSPLKPRNYQLELALPAKKGKNTIICAPTGCGKTFVSLLICEHHLKKFPCGQKGKVVFFANQIPVYEQQATVFSRYFERLGYNIASISGATSDSVSVQHIIEDNDIIILTPQILVNNLNNGAIPSLSVFTLMIFDECHNTSKNHPYNQIMFRYLDHKLGESRDPLPQVVGLTASVGVGDAKTAEEAMQHICKLCAALDASVIATVRDNVAELEQVVYKPQKISRKVASRTSNTFKCIISQLMKETEKLAKDVSEELGKLFQIQNREFGTQKYEQWIVGVHKACSVFQMADKEEESRVCKALFLYTSHLRKYNDALIISEDAQMTDALNYLKAFFHDVREAAFDETERELTRRFEEKLEELEKVSRDPSNENPKLRDLYLVLQEEYHLKPETKTILFVKTRALVDALKKWIEENPALSFLKPGILTGRGRTNRATGMTLPAQKCVLEAFRASGDNNILIATSVADEGIDIAECNLVILYEYVGNVIKMIQTRGRGRARDSKCFLLTSSADVIEKEKANMIKEKIMNESILRLQTWDEMKFGKTVHRIQVNEKLLRDSQHKPQPVPDKENKKLLCGKCKNFACYTADIRVVETSHYTVLGDAFKERFVCKPHPKPKIYDNFEKKAKIFCAKQNCSHDWGIFVRYKTFEIPVIKIESFVVEDIVSGVQNRHSKWKDFHFERIQFDPAEMSV"}, "B3": {"name": "Non-structural protein V (Simian virus 5 (strain W3)), P11207 (parent)", "chain": "MDPTDLSFSPDEINKLIETGLNTVEYFTSQQVTGTSSLGKNTIPPGVTGLLTNAAEAKIQESTNHQKGSVGGGAKPKKPRPKIAIVPADDKTVPGKPIPNPLLGLDSTPSTQTVLDLSGKTLPSGSYKGVKLAKFGKENLMTRFIEEPRENPIATSSPIDFKRGRDTGGFHRREYSIGWVGDEVKVTEWCNPSCSPITAAARRFECTCHQCPVTCSECERDT", "partner": "B1 chain"}, "B4": {"name": "Non-structural protein V (measles virus (strai), P0C774 (parent)", "chain": "MAEEQARHVKNGLECIRALKAEPIGSLAVEEAMAAWSEISDNPGQDRATCKEEEAGSSGLSKPCLSAIGSTEGGAPRIRGQGSGESDDDAETLGIPSRNLQASSTGLQCYHVYDHSGEAVKGIQDADSIMVQSGLDGDSTLSGGDDESENSDVDIGEPDTEGYAITDRGSAPISMGFRASDVETAEGGEIHELLKLQSRGNNFPKLGKTLNVPPPPNPSRASTSETPIKKGHRREIGLIWNGDRVFIDRWCNPMCSKVTLGTIRARCTCGECPRVCEQCRTDTGVDTRIWYHNLPEIPE", "partner": "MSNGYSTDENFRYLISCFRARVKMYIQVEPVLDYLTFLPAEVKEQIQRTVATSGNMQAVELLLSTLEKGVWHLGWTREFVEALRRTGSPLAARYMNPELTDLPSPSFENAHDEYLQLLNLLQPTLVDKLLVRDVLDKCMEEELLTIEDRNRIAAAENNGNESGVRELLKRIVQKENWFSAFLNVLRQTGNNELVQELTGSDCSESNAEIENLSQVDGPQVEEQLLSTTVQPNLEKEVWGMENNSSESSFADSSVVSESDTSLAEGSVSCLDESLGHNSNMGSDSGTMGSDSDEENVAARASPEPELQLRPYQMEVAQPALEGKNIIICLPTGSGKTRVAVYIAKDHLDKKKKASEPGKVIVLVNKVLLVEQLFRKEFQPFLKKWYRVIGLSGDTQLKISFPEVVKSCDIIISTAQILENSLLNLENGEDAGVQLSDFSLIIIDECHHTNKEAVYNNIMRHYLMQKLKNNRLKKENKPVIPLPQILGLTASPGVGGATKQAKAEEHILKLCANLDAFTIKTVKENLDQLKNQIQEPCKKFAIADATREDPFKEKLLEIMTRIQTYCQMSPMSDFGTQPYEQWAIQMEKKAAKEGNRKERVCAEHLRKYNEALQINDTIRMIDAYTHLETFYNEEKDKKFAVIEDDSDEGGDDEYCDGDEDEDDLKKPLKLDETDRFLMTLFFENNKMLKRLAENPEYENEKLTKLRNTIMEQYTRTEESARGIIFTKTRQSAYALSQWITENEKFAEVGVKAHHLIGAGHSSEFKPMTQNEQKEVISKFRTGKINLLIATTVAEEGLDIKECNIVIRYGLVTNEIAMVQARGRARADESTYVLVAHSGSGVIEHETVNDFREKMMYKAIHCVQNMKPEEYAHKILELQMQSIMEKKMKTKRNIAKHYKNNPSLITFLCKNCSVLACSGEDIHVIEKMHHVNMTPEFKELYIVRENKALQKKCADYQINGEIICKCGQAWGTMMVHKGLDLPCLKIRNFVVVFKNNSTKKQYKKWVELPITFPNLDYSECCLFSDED"}, "B5": {"name": "Antiviral innate immune response receptor RIG-I (Homo sapiens), O95786-1 (parent)", "chain": "MTTEQRRSLQAFQDYIRKTLDPTYILSYMAPWFREEEVQYIQAEKNNKGPMEAATLFLKFLLELQEEGWFRGFLDALDHAGYSGLYEAIESWDFKKIEKLEEYRLLLKRLQPEFKTRIIPTDIISDLSECLINQECEEILQICSTKGMMAGAEKLVECLLRSDKENWPKTLKLALEKERNKFSELWIVEKGIKDVETEDLEDKMETSDIQIFYQEDPECQNLSENSCPPSEVSDTNLYSPFKPRNYQLELALPAMKGKNTIICAPTGCGKTFVSLLICEHHLKKFPQGQKGKVVFFANQIPVYEQQKSVFSKYFERHGYRVTGISGATAENVPVEQIVENNDIIILTPQILVNNLKKGTIPSLSIFTLMIFDECHNTSKQHPYNMIMFNYLDQKLGGSSGPLPQVIGLTASVGVGDAKNTDEALDYICKLCASLDASVIATVKHNLEELEQVVYKPQKFFRKVESRISDKFKYIIAQLMRDTESLAKRICKDLENLSQIQNREFGTQKYEQWIVTVQKACMVFQMPDKDEESRICKALFLYTSHLRKYNDALIISEHARMKDALDYLKDFFSNVRAAGFDEIEQDLTQRFEEKLQELESVSRDPSNENPKLEDLCFILQEEYHLNPETITILFVKTRALVDALKNWIEGNPKLSFLKPGILTGRGKTNQNTGMTLPAQKCILDAFKASGDHNILIATSVADEGIDIAQCNLVILYEYVGNVIKMIQTRGRGRARGSKCFLLTSNAGVIEKEQINMYKEKMMNDSILRLQTWDEAVFREKILHIQTHEKFIRDSQEKPKPVPDKENKKLLCRKCKALACYTADVRVIEECHYTVLGDAFKECFVSRPHPKPKQFSSFEKRAKIFCARQNCSHDWGIHVKYKTFEIPVIKIESFVVEDIATGVQTLYSKWKDFHFEKIPFDPAEMSK", "partner": "B4 chain"}, "B6": {"name": "Interferon-induced helicase C domain-containing protein 1 (Homo sapiens), Q9BYX4 (parent)", "chain": "B4 partner", "partner": "B4 chain"}},
  "data": [
    {"variants_of": "B1", "details": "with v_piv5 P/V", "values": [
      {"variant": "R806L", "effect of a mutation on the interaction": "disrupting interaction strength"}
    ]},
    {"variants_of": "B2", "details": "with v_piv5 P/V", "values": [
      {"variant": "L715R;E717G", "effect of a mutation on the interaction": "increasing interaction strength"}
    ]},
    {"variants_of": "B3", "details": "with Ifih1, Q8R5F7-1", "values": [
      {"variant": "E174A", "effect of a mutation on the interaction": "decreasing interaction strength"}
    ]},
    {"variants_of": "B4", "details": "with ifih1_human IFIH1, Q9BYX4", "values": [
      {"variant": "E235A", "effect of a mutation on the interaction": "decreasing interaction strength"}
    ]},
    {"variants_of": "B5", "details": "with v_measc P/V", "values": [
      {"variant": "L714R", "effect of a mutation on the interaction": "increasing interaction strength"},
      {"variant": "L714R;E716G", "effect of a mutation on the interaction": "increasing interaction strength"}
    ]},
    {"variants_of": "B6", "details": "with v_measc P/V", "values": [
      {"variant": "R806L", "effect of a mutation on the interaction": "decreasing interaction strength"}
    ]}
  ]
}
